Assay results as given in patent US20220332804A1 (CSL INNOVATION, published 2022).

Tests used:
Assay in all cases: SPR, antibody captured, C2 as analyte;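 further: biacore at 37 °C, anti-C2 mAbs held by immobilised goat anti-human IgG, C2 alanine or serine mutants injected, double-referenced sensorgrams fitted to a 1:1 kinetic or steady-state model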
[1] = target: T1, human complement C2 (wild type) (human, UniProt P06681 21-752)
T1 construct: Full-length human C2 (NP_000054) with C-terminal 8x His tag, secreted from Expi293F cells and purified from the supernatant; also called WT; huC2
T1 sequence: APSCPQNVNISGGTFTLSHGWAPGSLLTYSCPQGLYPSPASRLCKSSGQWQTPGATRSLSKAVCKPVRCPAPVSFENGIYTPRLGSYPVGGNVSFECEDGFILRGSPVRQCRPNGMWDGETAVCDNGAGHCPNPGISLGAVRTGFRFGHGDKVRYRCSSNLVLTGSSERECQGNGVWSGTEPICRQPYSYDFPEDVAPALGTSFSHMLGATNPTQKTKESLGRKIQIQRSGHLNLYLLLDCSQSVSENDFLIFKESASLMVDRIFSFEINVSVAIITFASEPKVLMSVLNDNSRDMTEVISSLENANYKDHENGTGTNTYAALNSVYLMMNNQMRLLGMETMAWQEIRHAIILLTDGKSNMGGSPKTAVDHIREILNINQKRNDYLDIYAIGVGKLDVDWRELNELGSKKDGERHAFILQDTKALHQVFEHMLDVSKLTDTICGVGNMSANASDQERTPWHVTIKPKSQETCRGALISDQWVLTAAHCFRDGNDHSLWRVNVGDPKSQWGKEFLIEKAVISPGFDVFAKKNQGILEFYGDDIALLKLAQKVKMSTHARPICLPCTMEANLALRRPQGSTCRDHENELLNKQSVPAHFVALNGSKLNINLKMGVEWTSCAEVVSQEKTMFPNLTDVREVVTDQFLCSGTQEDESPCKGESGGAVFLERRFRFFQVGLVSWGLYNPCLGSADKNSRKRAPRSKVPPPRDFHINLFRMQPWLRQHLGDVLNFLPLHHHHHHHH

human C2 K274A = target: T2, human C2 K274A (human, UniProt P06681 21-752)
T2 sequence: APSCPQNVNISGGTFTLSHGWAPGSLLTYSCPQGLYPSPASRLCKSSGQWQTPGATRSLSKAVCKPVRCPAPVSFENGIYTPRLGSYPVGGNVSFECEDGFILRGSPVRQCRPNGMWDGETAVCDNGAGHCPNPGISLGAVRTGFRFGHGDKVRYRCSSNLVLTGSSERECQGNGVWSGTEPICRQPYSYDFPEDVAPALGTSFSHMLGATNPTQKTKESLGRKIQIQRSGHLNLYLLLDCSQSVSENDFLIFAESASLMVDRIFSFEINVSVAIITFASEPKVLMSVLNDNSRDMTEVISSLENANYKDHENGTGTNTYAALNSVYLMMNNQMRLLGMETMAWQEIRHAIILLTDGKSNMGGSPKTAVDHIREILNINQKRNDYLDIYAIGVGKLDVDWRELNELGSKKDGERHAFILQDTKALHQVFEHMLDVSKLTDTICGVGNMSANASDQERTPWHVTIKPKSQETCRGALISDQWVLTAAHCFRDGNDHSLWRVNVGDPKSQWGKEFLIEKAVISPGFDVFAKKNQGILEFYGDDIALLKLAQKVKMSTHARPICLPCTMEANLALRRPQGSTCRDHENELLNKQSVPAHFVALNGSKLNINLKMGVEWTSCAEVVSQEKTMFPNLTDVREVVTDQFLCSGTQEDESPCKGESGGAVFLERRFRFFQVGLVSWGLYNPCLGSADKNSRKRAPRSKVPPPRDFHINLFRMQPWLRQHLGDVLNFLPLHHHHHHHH

human C2 S428A = target: T3, human C2 S428A (human, UniProt P06681 21-752)
T3 sequence: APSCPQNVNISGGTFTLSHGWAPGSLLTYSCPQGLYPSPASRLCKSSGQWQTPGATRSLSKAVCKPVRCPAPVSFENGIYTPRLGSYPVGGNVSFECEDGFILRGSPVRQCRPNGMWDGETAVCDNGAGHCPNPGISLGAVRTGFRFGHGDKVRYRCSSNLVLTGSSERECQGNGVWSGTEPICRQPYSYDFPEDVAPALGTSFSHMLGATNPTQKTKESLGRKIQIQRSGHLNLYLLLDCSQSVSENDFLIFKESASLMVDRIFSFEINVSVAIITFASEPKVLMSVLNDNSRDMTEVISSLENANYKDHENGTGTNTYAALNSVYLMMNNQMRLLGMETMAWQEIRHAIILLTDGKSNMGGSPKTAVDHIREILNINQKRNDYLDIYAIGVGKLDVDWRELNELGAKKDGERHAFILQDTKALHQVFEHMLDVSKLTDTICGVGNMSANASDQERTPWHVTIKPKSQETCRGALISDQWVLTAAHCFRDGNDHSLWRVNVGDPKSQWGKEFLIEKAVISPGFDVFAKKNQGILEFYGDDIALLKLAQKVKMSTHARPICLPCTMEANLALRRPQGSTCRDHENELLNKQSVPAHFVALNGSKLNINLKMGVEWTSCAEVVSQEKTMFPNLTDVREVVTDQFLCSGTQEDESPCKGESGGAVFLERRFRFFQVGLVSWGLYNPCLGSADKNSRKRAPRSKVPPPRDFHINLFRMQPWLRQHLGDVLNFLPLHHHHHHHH

B1: RF16-242 (antibody, human IgG4 S228P, lambda, V domains shown)
VH: EVQLLQSGAEVKKPGESLKISCKGSGYSFTSYWIGWVRQMPGKGLEWMGIIYPGDSDTRYSPSFQGQVTISADKSISTAYLQWSSLKASDTAMYYCARRGHYGDYFDYWGQGTLVTVSS
VL: SYELTQPPSVSVSPGQTARITCSGDALPKKYAYWYHQKSGQAPVLVIYEDRRRPSEIPERFSGSSSGTMATLTITGAQVEDEGVYFCYSRDRAGNQRVFGGGTQLTVLG
notes: pH-dependent anti-C2 antibody from a phage display library
B1 gave a Kd [1] of 7 nM, a Kd (human C2 K274A) of 86.9 nM and a Kd (human C2 S428A) of 18.6 nM.
